According to patent US20170355730A1:
Starred links: 1 amine or outer side, 2 acyl side, 3 side chain; linkers in the order of their positions; H or OH if unused. Non-standard residues stand in square brackets, D forms with d. Primed or numbered codes have the meaning given here. No end group written: not given here. Trimesoyl = O=C(c1cc(C(=O)[*:2])cc(C(=O)[*:3])c1)[*:1]; Phe(3,4-F2) = N[C@@H](Cc1ccc(F)c(F)c1)C(=O)O; Phe(4-Br) = N[C@@H](Cc1ccc(Br)cc1)C(=O)O; Phe(4-Cl) = N[C@@H](Cc1ccc(Cl)cc1)C(=O)O; Phe(4-F) = N[C@@H](Cc1ccc(F)cc1)C(=O)O; dPhe(4-F) = N[C@H](Cc1ccc(F)cc1)C(=O)O; 2Nal = N[C@@H](Cc1ccc2ccccc2c1)C(=O)O; Pip′ = L-homoproline (pipecolyl); Dap = NC[C@H](N)C(=O)O; Sar = CNCC(=O)O

Columns and labels:
[1] = target: Pin1 (Example 6, construct not stated) (human) (UniProt Q13526); assay: fluorescence anisotropy
[2] = target: Pin1 (Example 6, construct not stated) (human) (UniProt Q13526); assay: cell-based or functional assay
[3] = target: Pin1 (Example 6, construct not stated) (human) (UniProt Q13526); assay: FA competition; competitor probe FITC-labeled peptide 1 (100 nM), Pin1 400 nM
[4] = target: bovine serum albumin (bovine) (UniProt P02769); assay: binding test against a panel of arbitrarily selected proteins
Sequence of bovine serum albumin (bovine) (P02769 25-607 limits assumed): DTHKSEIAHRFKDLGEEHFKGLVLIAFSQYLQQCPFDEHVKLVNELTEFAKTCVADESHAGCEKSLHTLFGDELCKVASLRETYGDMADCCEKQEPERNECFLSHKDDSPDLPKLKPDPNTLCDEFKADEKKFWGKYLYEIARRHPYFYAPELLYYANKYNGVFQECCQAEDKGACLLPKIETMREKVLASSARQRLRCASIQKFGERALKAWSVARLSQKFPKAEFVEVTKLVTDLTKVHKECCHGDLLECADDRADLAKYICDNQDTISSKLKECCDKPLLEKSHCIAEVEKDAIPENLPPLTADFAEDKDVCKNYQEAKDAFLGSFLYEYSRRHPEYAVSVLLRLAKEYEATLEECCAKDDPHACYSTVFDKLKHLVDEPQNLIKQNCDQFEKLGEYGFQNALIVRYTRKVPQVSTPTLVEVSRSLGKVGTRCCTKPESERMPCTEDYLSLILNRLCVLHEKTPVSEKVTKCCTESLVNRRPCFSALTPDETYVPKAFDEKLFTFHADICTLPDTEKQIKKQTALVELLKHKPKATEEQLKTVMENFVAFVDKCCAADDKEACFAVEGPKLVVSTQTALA

B1: peptide 31 (Table 18) (peptide)
peptide: Trimesoyl-[dF]H[dT][Pip′][2Nal]RA[dF][Dap]F[2Nal]RRRR[Dap]K
modifications: linker (positions not given here) via Trimesoyl; not fully specified (C-terminus, bridges); printed as bicyclo[Tm-(D-Phe-His-D-Thr-Pip-Nal-Arg-Ala-D-Phe)-Dap-(Phe-Nal-Arg-Arg-Arg-Arg-Dap)]-Lys
B1 gave a Kd [1] of 1.68 µM.

B2: peptide 25 (Table 18) (peptide)
peptide: Trimesoyl-P[Sar][dD][Pip′][2Nal]RR[dD][Dap]F[2Nal]RRRR[Dap]K-NH2
modifications: linker (positions not given here) via Trimesoyl; not fully specified (some residues, bridges); printed as bicyclo[Tm-(Pro-Sar-D-Asp-Pip-Nal-Arg-Arg-D-Asp)-Dap-(Phe-Nal-Arg-Arg-Arg-Arg-Dap)]-Lys
For B2, the Kd [1] was 4.6 µM.

B3: peptide 21 (Table 18) (peptide)
peptide: Trimesoyl-[dF][Phe(4-F)][dT][Pip′][2Nal]RS[dF][Dap]F[2Nal]RRRR[Dap]K-NH2
modifications: linker (positions not given here) via Trimesoyl; not fully specified (some residues, bridges); printed as bicyclo[Tm-(D-Phe-Fpa-D-Thr-Pip-Nal-Arg-Ser-D-Phe)-Dap-(Phe-Nal-Arg-Arg-Arg-Arg-Dap)]-Lys
B3 showed a Kd [1] of 0.57 µM.

B4: peptide 20 (Table 18) (peptide)
peptide: Trimesoyl-P[Sar][dD][Pip′][2Nal]RD[dA][Dap]F[2Nal]RRRR[Dap]K-NH2
modifications: linker (positions not given here) via Trimesoyl; not fully specified (some residues, bridges); printed as bicyclo[Tm-(Pro-Sar-D-Asp-Pip-Nal-Arg-Asp-D-Ala)-Dap-(Phe-Nal-Arg-Arg-Arg-Arg-Dap)]-Lys
Work on B4 yielded a Kd [1] of 3.19 µM.

B5: peptide 26 (Table 18) (peptide)
peptide: Trimesoyl-[dF][Phe(4-F)][dT][Pip′][2Nal]RG[dA][Dap]F[2Nal]RRRR[Dap]K-NH2
modifications: linker (positions not given here) via Trimesoyl; not fully specified (some residues, bridges); printed as bicyclo[Tm-(D-Phe-4-Fpa-D-Thr-Pip-Nal-Arg-Gly-D-Ala)-Dap-(Phe-Nal-Arg-Arg-Arg-Arg-Dap)]-Lys
B5 showed a Kd [1] of 0.74 µM.

B6: peptide 28 (Table 18) (peptide)
peptide: Trimesoyl-[dF]F[dT][Pip′][2Nal]RA[dF][Dap]F[2Nal]RRRR[Dap]K
modifications: linker (positions not given here) via Trimesoyl; not fully specified (some residues, C-terminus, bridges); printed as bicyclo[Tm-(D-Phe-Phe-D-Thr-Pip-Nal-Arg-Ala-D-Phe)-Dap-(Phe-Nal-Arg-Arg-Arg-Arg-Dap)]-Lys
Binder B6 has a Kd [1] of 1.26 µM.

B7: peptide 19 (Table 18) (peptide)
peptide: Trimesoyl-P[Sar][dD][Pip′][2Nal]RR[dA][Dap]F[2Nal]RRRR[Dap]K-NH2
modifications: linker (positions not given here) via Trimesoyl; not fully specified (some residues, bridges); printed as bicyclo[Tm-(Pro-Sar-D-Asp-Pip-Nal-Arg-Arg-D-Ala)-Dap-(Phe-Nal-Arg-Arg-Arg-Arg-Dap)]-Lys
Work on B7 yielded a Kd [1] of 0.72 µM.

B8: peptide 37 (Table 18) (peptide)
peptide: Trimesoyl-[dPhe(4-F)][Phe(4-F)][dT][Pip′][2Nal]RA[dF][Dap]F[2Nal]RRRR[Dap]K
modifications: linker (positions not given here) via Trimesoyl; not fully specified (bridges); printed as bicyclo[Tm-(D-4-Fpa-Fpa-D-Thr-Pip-Nal-Arg-Ala-D-Phe)-Dap-(Phe-Nal-Arg-Arg-Arg-Arg-Dap)]-Lys
B8 was tested, and the IC50 of HeLa cell growth (MTT assay) [2] was 1 µM, the IC50 of Pin1 catalytic activity toward Suc-Ala-Glu-Pro-Phe-pNA [2] was 170 nM and the PML protein level in HeLa cells (western blot), 0.2 µM inhibitor [2] was 1.8 fold. For the same binder, the PML protein level in HeLa cells (western blot), plateau at ˜1 µM inhibitor [2] was 3.3 fold, the IC50 [3] was 0.19 µM and the Kd [1] was 0.12 µM. The Kd [4] was 20 µM.

B9: peptide 30 (Table 18) (peptide)
peptide: Trimesoyl-[dF][Phe(4-Cl)][dT][Pip′][2Nal]RA[dF][Dap]F[2Nal]RRRR[Dap]K
modifications: linker (positions not given here) via Trimesoyl; not fully specified (C-terminus, bridges); printed as bicyclo[Tm-(D-Phe-4-ClPhe-D-Thr-Pip-Nal-Arg-Ala-D-Phe)-Dap-(Phe-Nal-Arg-Arg-Arg-Arg-Dap)]-Lys
B9 showed a Kd [1] of 0.78 µM.

B10: peptide 29 (Table 18) (peptide)
peptide: Trimesoyl-[dF][Phe(3,4-F2)][dT][Pip′][2Nal]RA[dF][Dap]F[2Nal]RRRR[Dap]K
modifications: linker (positions not given here) via Trimesoyl; not fully specified (C-terminus, bridges); printed as bicyclo[Tm-(D-Phe-3,4-diFPhe-D-Thr-Pip-Nal-Arg-Ala-D-Phe)-Dap-(Phe-Nal-Arg-Arg-Arg-Arg-Dap)]-Lys
In the case of B10, the Kd [1] is reported as 0.41 µM.

B11: peptide 24 (Table 18) (peptide)
peptide: Trimesoyl-P[Sar][dD][Pip′][2Nal]RR[dR][Dap]F[2Nal]RRRR[Dap]K-NH2
modifications: linker (positions not given here) via Trimesoyl; not fully specified (some residues, bridges); printed as bicyclo[Tm-(Pro-Sar-D-Asp-Pip-Nal-Arg-Arg-D-Arg)-Dap-(Phe-Nal-Arg-Arg-Arg-Arg-Dap)]-Lys
Binder B11 has a Kd [1] of 1.31 µM.

B12: peptide 34 (Table 18) (peptide)
peptide: Trimesoyl-[dV][Phe(4-F)][dT][Pip′][2Nal]RA[dA][Dap]F[2Nal]RRRR[Dap]K
modifications: linker (positions not given here) via Trimesoyl; not fully specified (C-terminus, bridges); printed as bicyclo[Tm-(D-Val-4-Fpa-D-Thr-Pip-Nal-Arg-Ala-D-Ala)-Dap-(Phe-Nal-Arg-Arg-Arg-Arg-Dap)]-Lys
With B12 the Kd [1] was 1.07 µM.

B13: peptide 32 (Table 18) (peptide)
peptide: Trimesoyl-[dF][Phe(4-Br)][dT][Pip′][2Nal]RA[dF][Dap]F[2Nal]RRRR[Dap]K
modifications: linker (positions not given here) via Trimesoyl; not fully specified (C-terminus, bridges); printed as bicyclo[Tm-(D-Phe-4-BrPhe-D-Thr-Pip-Nal-Arg-Ala-D-Phe)-Dap-(Phe-Nal-Arg-Arg-Arg-Arg-Dap)]-Lys
B13 showed a Kd [1] of 1.78 µM.

B14: peptide 23 (Table 18) (peptide)
peptide: Trimesoyl-P[Sar][dD][Pip′][2Nal]RR[dV][Dap]F[2Nal]RRRR[Dap]K-NH2
modifications: linker (positions not given here) via Trimesoyl; not fully specified (some residues, bridges); printed as bicyclo[Tm-(Pro-Sar-D-Asp-Pip-Nal-Arg-Arg-D-Val)-Dap-(Phe-Nal-Arg-Arg-Arg-Arg-Dap)]-Lys
In the case of B14, the Kd [1] is reported as 1.92 µM.
